Data set [1] has as its system HeLa Kyoto. Kind of data set: solubility in G1/S (NP-40 vs SDS abundance) (log2 ratio); higher = more soluble. The settings on record: cell cycle stage: G1/S.
Data set [2] relates to HeLa Kyoto. Kind of data set: melting temperature (median over replicates), in situ; higher = more thermally stable.
In data set [3] the test system is HeLa Kyoto. Kind of data set: solubility change mitosis vs G1/S (difference of NP-40 vs SDS log2 ratios) (log2 ratio difference); higher = more soluble in mitosis.
Data set [4] concerns HeLa Kyoto. Kind of data set: thermal stability score vs G1/S (z-score of summed log2 fold changes over temperatures); higher = more thermally stable than in G1/S.
The mark [5] stands for this setting: cell cycle stage: early G1 (4.5 h after nocodazole release).
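For melting temperature (median over replicates), in situ in this document: HeLa Kyoto cells synchronized by double thymidine or nocodazole block, proteins quantified by TMT10plex mass spectrometry, three independent biological replicates.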
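For solubility change mitosis vs G1/S (difference of NP-40 vs SDS log2 ratios) in this document: synchronized HeLa Kyoto cells (double thymidine block for G1/S, nocodazole release for mitosis), protein amounts in NP-40 versus SDS lysates quantified by mass spectrometry, three biological replicates.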
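For solubility in G1/S (NP-40 vs SDS abundance) in this document: HeLa Kyoto cells arrested at G1/S by double thymidine block, proteins quantified by TMT10plex mass spectrometry in mild NP-40 versus SDS extracts, three biological replicates.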
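For thermal stability score vs G1/S (z-score of summed log2 fold changes over temperatures) in this document: synchronized HeLa Kyoto cells, proteins quantified by TMT10plex mass spectrometry, three biological replicates, mitosis taken 0.5 h after nocodazole release, G1/S directly after double thymidine block.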

Consider “MGCAEGKAVAAAAPTELQTKGKNGDGRRRSAKDHHPGKTLPENPAGFTSTATADSRALLQAYIDGHSVVIFSRSTCTRCTEVKKLFKSLCVPYFVLELDQTEDGRALEGTLSELAAETDLPVVFVKQRKIGGHGPTLKAYQEGRLQKLLKMNGPEDLPKSYDYDLIIIGGGSGGLAAAKEAAQYGKKVMVLDFVTPTPLGTRWGLGGTCVNVGCIPKKLMHQAALLGQALQDSRNYGWKVEETVKHDWDRMIEAVQNHIGSLNWGYRVALREKKVVYENAYGQFIGPHRIKATNNKGKEKIYSAERFLIATGERPRYLGIPGDKEYCISSDDLFSLPYCPGKTLVVGASYVALECAGFLAGIGLDVTVMVRSILLRGFDQDMANKIGEHMEEHGIKFIRQFVPIKVEQIEAGTPGRLRVVAQSTNSEEIIEGEYNTVMLAIGRDACTRKIGLETVGVKINEKTGKIPVTDEEQTNVPYIYAIGDILEDKVELTPVAIQAGRLLAQRLYAGSTVKCDYENVPTTVFTPLEYGACGLSEEKAVEKFGEENIEVYHSYFWPLEWTIPSRDNNKCYAKIICNTKDNERVVGFHVLGPNAGEVTQGFAAALKCGLTKKQLDSTIGIHPVCAEVFTTLSVTKRSGASILQAGCUG [TXNRD1]”, for which the “solubility in G1/S (log2)” value in data set [1] turned out to be 0.0191. Besides, the figures for the melting temperature in data set [2] (cell cycle stage: G1/S) and in data set [2] (cell cycle stage: mitosis) were 52 °C and 51.9 °C, respectively. The “solubility change mitosis (log2)” value in data set [3] was -0.101. Further, the thermal stability score is 1.37 in data set [4] (setting [5]) and -1.27 in data set [4] (cell cycle stage: mitosis).
Consider “MALSCTLNRYLLLMAQEHLEFRLPEIKSLLLLFGGQFASSQETYGKSPFWILSIPSEDIARNLMKRTVCAKSIFELWGHGQSPEELYSSLKNYPVEKMVPFLHSDSTYKIKIHTFNKTLTQEEKIKRIDALEFLPFEGKVNLKKPQHVFSVLEDYGLDPNCIPENPHNIYFGRWIADGQRELIESYSVKKRHFIGNTSMDAGLSFIMANHGKVKENDIVFDPFVGTGGLLIACAHFGAYVYGTDIDYNTVHGLGKATRKNQKWRGPDENIRANLRQYGLEKYYLDVLVSDASKPSWRKGTYFDAIITDPPYGIRESTRRTGSQKEIPKGIEKWEKCPESHVPVSLSYHLSDMFLDLLNFAAETLVLGGRLVYWLPVYTPEYTEEMVPWHPCLELVSNCEQKLSSHTSRRLITMEKVKKFENRDQYSHLLSDHFLPYQGHNSFREKYFSGVTKRIAKEEKSTQE [TRMT11]”, for which, in data set [1], the “solubility in G1/S (log2)” value stood at 0.171. The results for the melting temperature in data set [2] (cell cycle stage: G1/S) and in data set [2] (cell cycle stage: mitosis) were 54.4 °C and 53.5 °C, respectively. For the same sequence, the “solubility change mitosis (log2)” value in data set [3] was -0.155. Also, the thermal stability score was 0.848 in data set [4] (setting [5]) and -0.0136 in data set [4] (cell cycle stage: mitosis).
Consider “MSLYPSLEDLKVDKVIQAQTAFSANPANPAILSEASAPIPHDGNLYPRLYPELSQYMGLSLNEEEIRANVAVVSGAPLQGQLVARPSSINYMVAPVTGNDVGIRRAEIKQGIREVILCKDQDGKIGLRLKSIDNGIFVQLVQANSPASLVGLRFGDQVLQINGENCAGWSSDKAHKVLKQAFGEKITMTIRDRPFERTITMHKDSTGHVGFIFKNGKITSIVKDSSAARNGLLTEHNICEINGQNVIGLKDSQIADILSTSGTVVTITIMPAFIFEHIIKRMAPSIMKSLMDHTIPEV [SDCBP]”, for which the “solubility in G1/S (log2)” value in data set [1] worked out at 0.00564. Further, the melting temperature in data set [2] (cell cycle stage: G1/S) was determined as 52.6 °C; in data set [2] (cell cycle stage: mitosis) it was 51.4 °C. Also, the “solubility change mitosis (log2)” value in data set [3] was -0.0317. Moreover, the thermal stability score in data set [4] (setting [5]) is -1.02; in data set [4] (cell cycle stage: mitosis), -6.31.
Consider “MATLPAEPSAGPAAGGEAVAAAAATEEEEEEARQLLQTLQAAEGEAAAAAGAGAGAAAAGAEGPGSPGVPGSPPEAASEPPTGLRFSPEQVACVCEALLQAGHAGRLSRFLGALPPAERLRGSDPVLRARALVAFQRGEYAELYRLLESRPFPAAHHAFLQDLYLRARYHEAERARGRALGAVDKYRLRKKFPLPKTIWDGEETVYCFKERSRAALKACYRGNRYPTPDEKRRLATLTGLSLTQVSNWFKNRRQRDRTGAGGGAPCKSESDGNPTTEDESSRSPEDLERGAAPVSAEAAAQGSIFLAGTGPPAPCPASSSILVNGSFLAASGSPAVLLNGGPVIINGLALGEASSLGPLLLTGGGGAPPPQPSPQGASETKTSLVLDPQTGEVRLEEAQSEAPETKGAQVAAPGPALGEEVLGPLAQVVPGPPTAATFPLPPGPVPAVAAPQVVPLSPPPGYPTGLSPTSPLLNLPQVVPTSQVVTLPQAVGPLQLLAAGPGSPVKVAAAAGPANVHLINSGVGVTALQLPSATAPGNFLLANPVSGSPIVTGVALQQGKIILTATFPTSMLVSQVLPPAPGLALPLKPETAISVPEGGLPVAPSPALPEAHALGTLSAQQPPPAAATTSSTSLPFSPDSPGLLPNFPAPPPEGLMLSPAAVPVWSAGLELSAGTEGLLEAEKGLGTQAPHTVLRLPDPDPEGLLLGATAGGEVDEGLEAEAKVLTQLQSVPVEEPLEL [SIX5]”, for which the “solubility in G1/S (log2)” value in data set [1] is -0.308. The sequence also came in with a melting temperature in data set [2] (cell cycle stage: mitosis) of 50.7 °C. Also, the “solubility change mitosis (log2)” value in data set [3] came to 0.346. In addition, the values for the thermal stability score in data set [4] (setting [5]) and in data set [4] (cell cycle stage: mitosis) were 0.121 and 0.872, respectively.
Take “MAAFAVEPQGPALGSEPMMLGSPTSPKPGVNAQFLPGFLMGDLPAPVTPQPRSISGPSVGVMEMRSPLLAGGSPPQPVVPAHKDKSGAPPVRSIYDDISSPGLGSTPLTSRRQPNISVMQSPLVGVTSTPGTGQSMFSPASIGQPRKTTLSPAQLDPFYTQGDSLTSEDHLDDSWVTVFGFPQASASYILLQFAQYGNILKHVMSNTGNWMHIRYQSKLQARKALSKDGRIFGESIMIGVKPCIDKSVMESSDRCALSSPSLAFTPPIKTLGTPTQPGSTPRISTMRPLATAYKASTSDYQVISDRQTPKKDESLVSKAMEYMFGW [NUP35]”: the “solubility in G1/S (log2)” value in data set [1] was determined as 0.209. For the same sequence, the melting temperature was 52.3 °C in data set [2] (cell cycle stage: G1/S) and 52 °C in data set [2] (cell cycle stage: mitosis). Further, in data set [3], the “solubility change mitosis (log2)” value is -0.0493. Further, the thermal stability score is -2.22 in data set [4] (setting [5]) and -0.679 in data set [4] (cell cycle stage: mitosis).
With “MGKAAAPSRGGGCGGRSRGLSSLFTVVPCLSCHTAAPGMSASTSGSGPEPKPQPQPVPEPERGPLSEQVSEAVSEAVPRSEPVSETTSEPEPGAGQPSELLQGSRPGSESSSGVGAGPFTKAASEPLSRAVGSATFLRPESGSLPALKPLPLLRPGQAKTPLGVPMSGTGTTSSAPLALLPLDSFEGWLLKWTNYLKGYQRRWFVLGNGLLSYYRNQGEMAHTCRGTINLSTAHIDTEDSCGILLTSGARSYHLKASSEVDRQQWITALELAKAKAVRVMNTHSDDSGDDDEATTPADKSELHHTLKNLSLKLDDLSTCNDLIAKHGAALQRSLTELDGLKIPSESGEKLKVVNERATLFRITSNAMINACRDFLELAEIHSRKWQRALQYEQEQRVHLEETIEQLAKQHNSLERAFHSAPGRPANPSKSFIEGSLLTPKGEDSEEDEDTEYFDAMEDSTSFITVITEAKEDSRKAEGSTGTSSVDWSSADNVLDGASLVPKGSSKVKRRVRIPNKPNYSLNLWSIMKNCIGRELSRIPMPVNFNEPLSMLQRLTEDLEYHHLLDKAVHCTSSVEQMCLVAAFSVSSYSTTVHRIAKPFNPMLGETFELDRLDDMGLRSLCEQVSHHPPSAAHYVFSKHGWSLWQEITISSKFRGKYISIMPLGAIHLEFQASGNHYVWRKSTSTVHNIIVGKLWIDQSGDIEIVNHKTNDRCQLKFLPYSYFSKEAARKVTGVVSDSQGKAHYVLSGSWDEQMECSKVMHSSPSSPSSDGKQKTVYQTLSAKLLWKKYPLPENAENMYYFSELALTLNEHEEGVAPTDSRLRPDQRLMEKGRWDEANTEKQRLEEKQRLSRRRRLEACGPGSSCSSEEEKEADAYTPLWFEKRLDPLTGEMACVYKGGYWEAKEKQDWHMCPNIF [OSBP2]”, the “solubility in G1/S (log2)” value in data set [1] amounted to 0.0107. In addition, the melting temperature is 50.7 °C in data set [2] (cell cycle stage: G1/S) and 51 °C in data set [2] (cell cycle stage: mitosis). The “solubility change mitosis (log2)” value in data set [3] is -0.137. In addition, the thermal stability score in data set [4] (setting [5]) was -0.699; in data set [4] (cell cycle stage: mitosis), -0.707.

(Values after the supplement of paper PMC5998384.)
